Measurements as given in publication doi:10.1101/2025.03.24.645063 (2025).

Molecular target: CRBN/DDB1 complex (human | , UniProt Q96SW2 1-442; Q16531 1-1140, CoraFluor-1 label (on the complex, chain not told))
Test: FRET; TR-FRET competitive displacement of thal-FITC

- Kd: 1500 nM
B1: UROD with C-terminal cyclic imide (recombinant UROD incubated with PCMT1) (natural protein)
chain: MEANGLGPQGFPELKNDTFLRAAWGEETDYTPVWCMRQAGRYLPEFRETRAAQDFFSTCRSPEACCELTLQPLRRFPLDAAIIFSDILVVPQALGMEVTMVPGKGPSFPEPLREEQDLERLRDPEVVASELGYVFQAITLTRQRLAGRVPLIGFAGAPWTLMTYMVEGGGSSTMAQAKRWLYQRPQASHQLLRILTDALVPYLVGQVVAGAQALQLFESHAGHLGPQLFNKFALPYIRDVAKQVKARLREAGLAPVPMIIFAKDGHFALEELAQAGYEVVGLDWTVAPKKARECVGKTVTLQGNLDPCALYASEEEIGQLVKQMLDDFGPHRYIANLGHGLYPDMDPEHVGAFVDAVHKHSRLLRQN
modifications: C-terminal cyclic imide on the C-terminal asparagine (N367), confirmed by mass spectrometry
